In the test the target is T1, CD19 on Nalm6-luc tumor cells (CD19+BCMA-) (UniProt P15391 20-556, limits assumed).
T1 sequence (looked up): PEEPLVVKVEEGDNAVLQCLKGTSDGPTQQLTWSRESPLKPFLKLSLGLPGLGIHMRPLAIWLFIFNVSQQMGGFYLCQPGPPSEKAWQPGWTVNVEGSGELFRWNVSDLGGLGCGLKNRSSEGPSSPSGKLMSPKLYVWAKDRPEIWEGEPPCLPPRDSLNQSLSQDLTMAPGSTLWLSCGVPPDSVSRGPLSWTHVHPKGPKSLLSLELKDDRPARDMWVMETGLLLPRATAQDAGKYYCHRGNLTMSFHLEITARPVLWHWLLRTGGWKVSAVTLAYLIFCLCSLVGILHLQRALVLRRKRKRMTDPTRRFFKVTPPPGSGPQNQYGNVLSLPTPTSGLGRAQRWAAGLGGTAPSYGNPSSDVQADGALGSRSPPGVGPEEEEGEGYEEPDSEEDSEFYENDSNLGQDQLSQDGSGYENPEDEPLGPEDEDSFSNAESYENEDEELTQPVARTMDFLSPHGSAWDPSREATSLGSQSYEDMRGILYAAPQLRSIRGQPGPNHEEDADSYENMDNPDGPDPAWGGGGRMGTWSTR
The test is described as follows: cell-based or functional assay.

B1: B19 CAR (BCMA CAR and CD19-mutant CAR expressed in parallel on T cells) (other)
chain 1: DIVLTQSPPSLAMSLGKRATISCRASESVTILGSHLIHWYQQKPGQPPTLLIQLASNVQTGVPARFSGSGSRTDFTLTIDPVEEDDVAVYYCLQSRTIPRTFGGGTKLEIKGGGGSGGGGSGGGGSQIQLVQSGPELKKPGETVKISCKASGYTFTDYSINWVKRAPGKGLKWMGWINTETREPAYAYDFRGRFAFSLETSASTAYLQINNLKYEDTATYFCALDYSYAMDYWGQGTSVTVSSTTTPAPRPPTPAPTIASQPLSLRPEACRPAAGGAVHTRGLDFACDIYIWAPLAGTCGVLLLSLVITLYCKRGRKKLLYIFKQPFMRPVQTTQEEDGCSCRFPEEEEGGCELRVKFSRSADAPAYQQGQNQLYNELNLGRREEYDVLDKRRGRDPEMGGKPRRKNPQEGLYNELQKDKMAEAYSEIGMKGERRRGKGHDGLYQGLSTATKDTYDALHMQALPPR
chain 2: DIQMTQTTSSLSASLGDRVTISCRASQDISKYLNWYQQKPDGTVKLLIYHTSRLHSGVPSRFSGSGSGTDYSLTISNLEQEDIATYFCQQGNTLPYTFGGGTKLEITGGGGSGGGGSGGGGSEVKLQESGPGLVAPSQSLSVTCTVSGVSLPDYGVSWIRQPPRKGLEWLGVIWGSETTYYNSALKSRLTIIKDNSKSQVFLKMNSLQTDDTAIYYCAKHYYYGGSYAMDYWGQGTSVTVSSIEVMYPPPYLDNEKSNGTIIHVKGKHLCPSPLFPGPSKPFWVLVVVGGVLACYSLLVTVAFIIFWVRSKRSRLLHSDYMFMTPRRPGPTRKHYQPYAPPRDFAAYRSRVKFSRSADAPAYQQGQNQLYNELNLGRREEYDVLDKRRGRDPEMGGKPRRKNPQEGLYNELQKDKMAEAYSEIGMKGERRRGKGHDGLYQGLSTATKDTYDALHMQALPPR
Regarding B1, the “tumor cell killing rate, Nalm6-luc, E:T 1:8, 72 h luciferase assay” value amounted to 71.8% and the “tumor cell killing rate, Nalm6-luc, E:T 1:16, 72 h luciferase assay” value was 49%.

B2: B19-wildtype CAR (BCMA CAR and CD19-wildtype CAR expressed in parallel on T cells) (other)
chain 1: DIVLTQSPPSLAMSLGKRATISCRASESVTILGSHLIHWYQQKPGQPPTLLIQLASNVQTGVPARFSGSGSRTDFTLTIDPVEEDDVAVYYCLQSRTIPRTFGGGTKLEIKGGGGSGGGGSGGGGSQIQLVQSGPELKKPGETVKISCKASGYTFTDYSINWVKRAPGKGLKWMGWINTETREPAYAYDFRGRFAFSLETSASTAYLQINNLKYEDTATYFCALDYSYAMDYWGQGTSVTVSSTTTPAPRPPTPAPTIASQPLSLRPEACRPAAGGAVHTRGLDFACDIYIWAPLAGTCGVLLLSLVITLYCKRGRKKLLYIFKQPFMRPVQTTQEEDGCSCRFPEEEEGGCELRVKFSRSADAPAYQQGQNQLYNELNLGRREEYDVLDKRRGRDPEMGGKPRRKNPQEGLYNELQKDKMAEAYSEIGMKGERRRGKGHDGLYQGLSTATKDTYDALHMQALPPR
chain 2: DIQMTQTTSSLSASLGDRVTISCRASQDISKYLNWYQQKPDGTVKLLIYHTSRLHSGVPSRFSGSGSGTDYSLTISNLEQEDIATYFCQQGNTLPYTFGGGTKLEITGGGGSGGGGSGGGGSEVKLQESGPGLVAPSQSLSVTCTVSGVSLPDYGVSWIRQPPRKGLEWLGVIWGSETTYYNSALKSRLTIIKDNSKSQVFLKMNSLQTDDTAIYYCAKHYYYGGSYAMDYWGQGTSVTVSSIEVMYPPPYLDNEKSNGTIIHVKGKHLCPSPLFPGPSKPFWVLVVVGGVLACYSLLVTVAFIIFWVRSKRSRLLHSDYMNMTPRRPGPTRKHYQPYAPPRDFAAYRSRVKFSRSADAPAYQQGQNQLYNELNLGRREEYDVLDKRRGRDPEMGGKPRRKNPQEGLYNELQKDKMAEAYSEIGMKGERRRGKGHDGLYQGLSTATKDTYDALHMQALPPR
Consider B2, for which the “tumor cell killing rate, Nalm6-luc, E:T 1:8, 72 h luciferase assay” value was determined as 55% and the “tumor cell killing rate, Nalm6-luc, E:T 1:16, 72 h luciferase assay” value was 30.6%.

Source of the values: patent US20260191957A1 (NOVATIM IMMUNE THERAPEUTICS ZHEJIANG, published 2026).
